Laboratory results published in patent US20260139049A1.
Where two headings read alike, the source gives them in different places.

How the values were obtained:
human CLDN6 (human) [1] = target: human CLDN6 (human) (UniProt P56747); assay: FACS on HEK293T-CLDN6 cells
[2] = target: monkey CLDN6 (Cyno CLDN6) (monkey (Cyno)); assay: FACS on CHO-K1-Cyno CLDN6 cells
mouse CLDN6 (mouse) [3] = target: mouse CLDN6 (mouse) (UniProt Q9Z262); assay: FACS on CHO-K1-Mouse CLDN6 cells
human CLDN3 (human) = human CLDN3 (human) (UniProt O15551); assay: FACS on 293T-CLDN3 cells, 10 µg/mL
Sequence of human CLDN3 (human) (O15551 whole entry): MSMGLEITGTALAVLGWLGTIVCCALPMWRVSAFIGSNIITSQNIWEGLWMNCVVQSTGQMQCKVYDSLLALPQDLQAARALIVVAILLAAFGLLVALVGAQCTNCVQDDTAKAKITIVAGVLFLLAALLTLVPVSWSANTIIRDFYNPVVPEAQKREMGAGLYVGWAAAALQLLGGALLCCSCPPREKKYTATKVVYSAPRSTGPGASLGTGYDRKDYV

human CLDN4 (human) = human CLDN4 (human) (UniProt O14493); assay: FACS on 293T-CLDN4 cells, 10 µg/mL
Sequence of human CLDN4 (human) (O14493 whole entry): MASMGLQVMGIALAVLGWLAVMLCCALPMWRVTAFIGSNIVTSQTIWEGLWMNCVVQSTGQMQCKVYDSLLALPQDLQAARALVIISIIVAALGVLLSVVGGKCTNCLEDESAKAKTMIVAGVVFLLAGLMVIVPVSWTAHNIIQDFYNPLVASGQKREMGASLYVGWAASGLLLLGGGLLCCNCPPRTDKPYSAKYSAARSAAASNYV

human CLDN6 (human) [4] = target: human CLDN6 (human) (UniProt P56747); assay: FACS on 293T-CLDN6 cells, 10 µg/mL
human CLDN9 (human) [5] = target: human CLDN9 (human) (UniProt O95484); assay: FACS on 293T-CLDN9 cells, 10 µg/mL
Sequence of human CLDN9 (human) (O95484 whole entry): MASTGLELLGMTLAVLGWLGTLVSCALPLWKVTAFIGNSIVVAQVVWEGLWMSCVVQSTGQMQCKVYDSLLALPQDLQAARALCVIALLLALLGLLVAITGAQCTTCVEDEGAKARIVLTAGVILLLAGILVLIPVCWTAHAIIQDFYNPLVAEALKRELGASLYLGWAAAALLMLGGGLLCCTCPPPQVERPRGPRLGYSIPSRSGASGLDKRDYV

human CLDN6 (human) [6] = target: human CLDN6 (human) (UniProt P56747); assay: FACS on 293T-CLDN6 cells, 10 µg/mL; remark: listed apart in the source
human CLDN9 (human) [7] = target: human CLDN9 (human) (UniProt O95484); assay: FACS on 293T-CLDN9 cells, 10 µg/mL; remark: listed apart in the source
human CLDN6 (human) [8] = target: human CLDN6 (human) (UniProt P56747); assay: FACS on 293T-CLDN6 cells, 10 µg/mL; remark: listed apart in the source
human CLDN9 (human) [9] = target: human CLDN9 (human) (UniProt O95484); assay: FACS on 293T-CLDN9 cells, 10 µg/mL; remark: listed apart in the source
human CLDN6 (human) [10] = target: human CLDN6 (human) (UniProt P56747); assay: FACS on PA-1 tumour cells; target on the cells taken as CLDN6
human CLDN6 (human) [11] = target: human CLDN6 (human) (UniProt P56747); assay: as above; remark: listed apart in the source
human CLDN6 (human) [12] = target: human CLDN6 (human) (UniProt P56747); assay: FACS on HepG2 tumour cells; target on the cells taken as CLDN6
human CLDN6 (human) [13] = target: human CLDN6 (human) (UniProt P56747); assay: as above; remark: listed apart in the source
human CLDN6 (human) [14] = target: human CLDN6 (human) (UniProt P56747); assay: ratio of FACS Geom.Mean on 293T-CLDN6 over 293T-CLDN9, 10 µg/mL
human CLDN6 (human) [15] = target: human CLDN6 (human) (UniProt P56747); assay: FACS on HepG2 tumour cells, 5 µg/mL; target on the cells taken as CLDN6
mouse CLDN6 (mouse) [16] = target: mouse CLDN6 (mouse) (UniProt Q9Z262); assay: FACS
mouse CLDN6 (mouse) [17] = target: mouse CLDN6 (mouse) (UniProt Q9Z262); assay: FACS; FIG. 20

Sequence of mouse CLDN6 (mouse) (Q9Z262 whole entry): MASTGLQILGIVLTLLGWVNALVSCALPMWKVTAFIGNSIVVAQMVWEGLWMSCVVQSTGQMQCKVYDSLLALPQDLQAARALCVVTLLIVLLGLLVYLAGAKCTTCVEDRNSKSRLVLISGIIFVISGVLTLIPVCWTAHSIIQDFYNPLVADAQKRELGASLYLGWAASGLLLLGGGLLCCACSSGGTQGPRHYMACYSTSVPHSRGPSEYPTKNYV
Sequence of human CLDN6 (human) (P56747 whole entry): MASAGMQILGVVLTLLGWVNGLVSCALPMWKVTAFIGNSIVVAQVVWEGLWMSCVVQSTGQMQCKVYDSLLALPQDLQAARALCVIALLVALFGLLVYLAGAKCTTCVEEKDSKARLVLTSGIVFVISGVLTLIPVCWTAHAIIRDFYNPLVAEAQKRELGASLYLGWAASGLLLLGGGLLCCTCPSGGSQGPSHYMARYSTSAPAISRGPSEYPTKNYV

Substance	EC50 (human CLDN6 (human) [1])	FACS signal (human CLDN6 (human) [1])	EC50 [2]	EC50 (mouse CLDN6 (mouse) [3])	Geom.Mean (human CLDN3 (human))	Geom.Mean (human CLDN4 (human))	Geom.Mean (human CLDN6 (human) [4])	Geom.Mean (human CLDN9 (human) [5])	Geom.Mean (human CLDN6 (human) [6])	Geom.Mean (human CLDN9 (human) [7])	Geom.Mean (human CLDN6 (human) [8])	Geom.Mean (human CLDN9 (human) [9])	EC50 (human CLDN6 (human) [10])	EC50 (human CLDN6 (human) [11])	EC50 (human CLDN6 (human) [12])	EC50 (human CLDN6 (human) [13])	CLDN6/CLDN9 ratio (human CLDN6 (human) [14])	Geom.Mean (human CLDN6 (human) [15])	EC50 (mouse CLDN6 (mouse) [16])	EC50 (mouse CLDN6 (mouse) [17])
Human IgG (antibody)	323 µg/mL	136	132 µg/mL	78.8 µg/mL	168	158	196	119	163	79.4	222	295	138000 µg/mL	194 µg/mL	63700 µg/mL	77.5 µg/mL	1.6	57.6		
IMAB027																			0.332 µg/mL	0.332 µg/mL
